9 molecules from PMC10572780, “MucR from Sinorhizobium meliloti: New Insights into Its DNA Targets and Its Ability to Oligomerize” (International Journal of Molecular Sciences, 2023) can be followed below.

For data set [1], the target named is T1, rMucR (recombinant MucR) (Sinorhizobium meliloti 1021, UniProt P55323 1-143).
T1 sequence: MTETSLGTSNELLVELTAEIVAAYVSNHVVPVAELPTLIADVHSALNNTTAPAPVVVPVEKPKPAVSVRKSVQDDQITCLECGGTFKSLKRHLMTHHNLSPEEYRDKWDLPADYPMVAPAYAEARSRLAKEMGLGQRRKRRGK
The data set can be described thus: EMSA; minimal length with detectable binding; 25 mM HEPES pH 7.9, 50 mM KCl, 6.25 mM MgCl2, 5% glycerol; 10 min on ice (plus 10 min on ice after competitor); 5% polyacrylamide gel, 0.5x TBE, room temperature, 200 V, 70 min. Particulars: protein: recombinant; tags: none (pET22b+, NdeI/XhoI, native stop codon in reverse primer); chain copies: 10. A general note: In EMSA bound probe runs differently from free probe, usually more slowly.

In data set [2] the target is T1, rMucR (recombinant MucR). The data set can be described thus: EMSA; 10 pmol DNA; 25 mM HEPES pH 7.9, 50 mM KCl, 6.25 mM MgCl2, 5% glycerol; 10 min on ice (plus 10 min on ice after competitor); 5% polyacrylamide gel, 0.5x TBE, room temperature, 200 V, 70 min. Particulars: protein: recombinant; tags: none (pET22b+, NdeI/XhoI, native stop codon in reverse primer); chain copies: 10.

In data set [3] the target is T1, rMucR (recombinant MucR). Briefly: EMSA; 20 pmol rMucR, 10 pmol DNA, no competitor; 25 mM HEPES pH 7.9, 50 mM KCl, 6.25 mM MgCl2, 5% glycerol; 10 min on ice (plus 10 min on ice after competitor); 5% polyacrylamide gel, 0.5x TBE, room temperature, 200 V, 70 min. The conditions noted are these: protein: recombinant; tags: none (pET22b+, NdeI/XhoI, native stop codon in reverse primer); chain copies: 10; label: FAM.

Data set [4] deals with the molecule itself. The data set can be described thus: SEC-MALS; samples at 1 mg/mL on Superdex 200 in the buffer of the final purification step, 0.5 mL/min; MiniDAWN Treos; higher-order oligomer, no monomer or lower-order oligomers seen.
The next data set concerns the target T2, native MucR (Sinorhizobium meliloti 1021, UniProt P55323 2-143).
T2 sequence: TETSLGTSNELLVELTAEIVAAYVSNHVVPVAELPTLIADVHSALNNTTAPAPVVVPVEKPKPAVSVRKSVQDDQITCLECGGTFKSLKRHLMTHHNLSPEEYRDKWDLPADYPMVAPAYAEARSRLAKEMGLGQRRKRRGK
The data set can be described thus: EMSA; 25 mM HEPES pH 7.9, 50 mM KCl, 6.25 mM MgCl2, 5% glycerol; 10 min on ice (plus 10 min on ice after competitor); 5% polyacrylamide gel, 0.5x TBE, room temperature, 200 V, 70 min. The conditions noted are these: protein: native; tags: none.

In data set [5] the target is T1, rMucR (recombinant MucR). The data set can be described thus: competition; vs FAM-rem site3; 5-, 10-, 20-fold excess; does not effectively compete; 25 mM HEPES pH 7.9, 50 mM KCl, 6.25 mM MgCl2, 5% glycerol; 10 min on ice (plus 10 min on ice after competitor); 5% polyacrylamide gel, 0.5x TBE, room temperature, 200 V, 70 min. Particulars: protein: recombinant; tags: none (pET22b+, NdeI/XhoI, native stop codon in reverse primer); chain copies: 10.

B1: rem site3 18 bp (dsDNA)
DNA 1: ATTCTTAATCAACTATTA
DNA 2: TAATAGTTGATTAAGAAT
As for B1, in the data set with rMucR (recombinant MucR) [1], the binding result is “binds”.

B2: rem site3 (dsDNA)
DNA 1: CACGCAATTCTTAATCAACTATTAAAATCC
DNA 2: GGATTTTAATAGTTGATTAAGAATTGCGTG
Take B2: the binding result with rMucR (recombinant MucR) [2] is “binds”.

B3: FAM-labeled rem site3 (dsDNA)
DNA 1: B2 DNA 1
DNA 2: B2 DNA 2
In the case of B3, in the data set with rMucR (recombinant MucR) [3], the binding result is on record as “binds”.

B4: recombinant S. meliloti MucR (natural protein, Sinorhizobium meliloti 1021, UniProt P55323 1-143, looked up)
chain: T1 sequence
notes: Expressed with 100 uM zinc sulfate; Oligomer by SEC-MALS corresponds to a decamer (9 to 12 protomers not excluded); also called rMucR; recombinant MucR; source: E. coli BL21(DE3), pET22b+, purified (cation exchange chromatography, size exclusion chromatography); copies: 10
As to B4, the stoichiometry N (commonly a count of units in the complex or per binding partner) in data set [4] worked out at 10.

B5: rem site1 (dsDNA)
DNA 1: ATCACCTACTAGATATAGGCCCAAATCGGC
DNA 2: GCCGATTTGGGCCTATATCTAGTAGGTGAT
For the molecule B5, in the data set with rMucR (recombinant MucR) [2], the binding result is given as “binds”.

B6: MucR purified from S. meliloti (natural protein, Sinorhizobium meliloti 1021, UniProt P55323 2-143, looked up)
chain: T2 sequence
notes: MucR from Sinorhizobium meliloti 1021, naturally expressed; 9 to 12 protomers not excluded; also called native MucR; naturally expressed MucR; source: endogenous, purified from S. meliloti 1021 (cation exchange chromatography, size exclusion chromatography); copies: 10
With B6, the “stoichiometry N” value in data set [4] amounted to 10.

B7: rem site2 (dsDNA)
DNA 1: CATCATGTTAGTGGTAAGGTTAACGATCAC
DNA 2: GTGATCGTTAACCTTACCACTAACATGATG
Turning to B7, the binding result with rMucR (recombinant MucR) [2] was “binds”.

B8: ndvA upstream region oligonucleotide (dsDNA)
DNA 1: GATAATTCTTCATATCACGCCCGGTCTTGCAGGAAACCTGCAAAAACTCGGAGTCGAGGCATCAAGATAGCTAACGATGAATCAT
DNA 2: ATGATTCATCGTTAGCTATCTTGATGCCTCGACTCCGAGTTTTTGCAGGTTTCCTGCAAGACCGGGCGTGATATGAAGAATTATC
Regarding B8, in the data set with native MucR, the binding result was “binds”.

B9: rem site3 mut2 (dsDNA)
DNA 1: CGCGCGGCCCCCGGCCGGCCGCCGGGGCCC
DNA 2: GGGCCCCGGCGGCCGGCCGGGGGCCGCGCG
Turning to B9, in the data set with rMucR (recombinant MucR) [5], the binding result is listed as “no binding”.
